Tests used:
atezolizumab = experiment: ELISA; antibodies coated on MaxiSorp plates (5 µg/mL, 50 µL, overnight 4°C), blocked with 1% BSA; PD-L1 or VISTA 50-0.0003 µg/mL in PBS, 1 h RT; detected by anti-His-tag antibody and Strep-HRP; EC50 by nonlinear regression
onvatilimab = experiment: as above
Sequence of onvatilimab (heavy, as listed by the source, chain 1 of 2): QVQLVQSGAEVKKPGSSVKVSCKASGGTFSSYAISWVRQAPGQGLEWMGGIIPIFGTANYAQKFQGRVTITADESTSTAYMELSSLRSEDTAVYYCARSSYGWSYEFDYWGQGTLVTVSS
Sequence of onvatilimab (light, as listed by the source, chain 2 of 2): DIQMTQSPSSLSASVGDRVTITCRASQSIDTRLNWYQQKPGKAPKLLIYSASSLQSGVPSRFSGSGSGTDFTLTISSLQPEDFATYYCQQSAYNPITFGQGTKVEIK

Substance | EC50 (atezolizumab) [nM] | EC50 (onvatilimab) [nM]
PD-L1 (programmed cell death ligand 1) (from UniProt Q9NZQ7 19-290) (natural protein) | 0.07 | –
VISTA (V-type immunoglobulin suppressor of T-cell activation) (from UniProt Q9H7M9 33-311) (natural protein) | – | 0.0001

From article PMC12099300
